Source: US20260137822A1 (ABDERA THERAPEUTICS, published 2026)

Assays:
[1] = biological target: T1, DLL3 on cells (SHP-77, NCI-H82, HEK-DLL3) (UniProt Q9NYJ7 27-618); assay: flow cytometry, HEK-DLL3 cells
T1 construct: whole, on cells; also called DLL3-positive cell lines
T1 sequence (looked up): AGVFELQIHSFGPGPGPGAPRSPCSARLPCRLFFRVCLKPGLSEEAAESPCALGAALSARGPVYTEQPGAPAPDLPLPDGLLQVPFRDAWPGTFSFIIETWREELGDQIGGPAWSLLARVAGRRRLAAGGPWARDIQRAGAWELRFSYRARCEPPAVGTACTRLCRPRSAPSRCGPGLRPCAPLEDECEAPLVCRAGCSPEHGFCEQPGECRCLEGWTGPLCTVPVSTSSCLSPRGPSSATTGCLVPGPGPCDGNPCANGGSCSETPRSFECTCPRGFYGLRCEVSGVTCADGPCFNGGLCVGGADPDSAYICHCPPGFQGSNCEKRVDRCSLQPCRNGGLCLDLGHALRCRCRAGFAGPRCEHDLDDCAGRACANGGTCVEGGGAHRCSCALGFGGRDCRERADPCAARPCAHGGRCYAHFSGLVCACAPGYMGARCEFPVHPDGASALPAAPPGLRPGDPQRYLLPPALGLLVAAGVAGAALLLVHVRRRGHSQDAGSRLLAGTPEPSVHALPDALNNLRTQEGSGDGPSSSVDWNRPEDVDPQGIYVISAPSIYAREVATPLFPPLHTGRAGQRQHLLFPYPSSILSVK

[2] = biological target: T2, human DLL3.FLAG (Adipogen #AG-40B-0151, amino acid 27-466) (human, UniProt Q9NYJ7 27-466); assay: ELISA on coated hDLL3-Flag, A450nm against nM antibody
T2 construct: range 27-466; Carries a FLAG tag
T2 sequence (looked up): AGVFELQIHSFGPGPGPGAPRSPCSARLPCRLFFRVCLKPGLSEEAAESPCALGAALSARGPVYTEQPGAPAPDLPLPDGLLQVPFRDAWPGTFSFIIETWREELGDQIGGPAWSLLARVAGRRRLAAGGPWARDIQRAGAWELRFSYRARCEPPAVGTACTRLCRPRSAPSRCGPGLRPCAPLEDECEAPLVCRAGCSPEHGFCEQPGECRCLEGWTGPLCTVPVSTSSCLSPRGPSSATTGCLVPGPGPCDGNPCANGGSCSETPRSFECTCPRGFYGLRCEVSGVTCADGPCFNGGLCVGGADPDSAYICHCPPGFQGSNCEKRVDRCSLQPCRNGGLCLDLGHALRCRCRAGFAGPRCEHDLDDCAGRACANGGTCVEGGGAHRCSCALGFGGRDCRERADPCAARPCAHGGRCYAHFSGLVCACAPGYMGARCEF

[3] = biological target: T1, DLL3 on cells (SHP-77, NCI-H82, …); assay: flow cytometry on SHP-77 cells (DLL3-positive), MFI against nM antibody
[4] = biological target: T1, DLL3 on cells (SHP-77, NCI-H82, …); assay: flow cytometry, SHP-77 cells
[5] = biological target: T3, FOLR1 on cells (OVCAR3, OV-90) (UniProt P15328 25-234); assay: flow cytometry on FOLR1 expressing OV-90 cells, Geomeans RL1-H against Conc (nM); linker not printed on the sheet, taken as the (GGS)3 parent of the conjugate [bottom panel]
T3 construct: whole, on cells; also called FOLR1-positive OVCAR3 cells; FOLR1 expressing OV-90 cells
T3 sequence (P15328 25-234): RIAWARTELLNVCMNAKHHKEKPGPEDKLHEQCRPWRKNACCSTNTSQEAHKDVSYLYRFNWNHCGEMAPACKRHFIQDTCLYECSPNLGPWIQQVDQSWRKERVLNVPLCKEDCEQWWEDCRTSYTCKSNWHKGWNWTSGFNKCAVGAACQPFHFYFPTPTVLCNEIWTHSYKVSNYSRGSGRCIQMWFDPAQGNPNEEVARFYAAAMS

[6] = biological target: T4, murine FOLR1 (antigen of the Octet assay) (murine, UniProt P35846 25-232, limits assumed); assay: BLI (Octet), tetramer captured on AHC sensor, antigen as analyte
T4 construct: also called mFOLR1
T4 sequence (P35846 25-232 limits assumed): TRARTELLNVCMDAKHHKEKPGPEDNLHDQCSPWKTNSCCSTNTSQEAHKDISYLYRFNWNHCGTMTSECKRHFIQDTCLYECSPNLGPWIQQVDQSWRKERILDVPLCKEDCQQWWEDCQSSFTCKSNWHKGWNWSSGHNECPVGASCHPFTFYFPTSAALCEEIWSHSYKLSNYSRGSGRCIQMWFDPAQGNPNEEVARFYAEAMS

[7] = biological target: T5, human DLL3 (antigen of Example 30) (human, UniProt Q9NYJ7 27-492, limits assumed); assay: as above
T5 construct: also called hDLL3
T5 sequence (looked up): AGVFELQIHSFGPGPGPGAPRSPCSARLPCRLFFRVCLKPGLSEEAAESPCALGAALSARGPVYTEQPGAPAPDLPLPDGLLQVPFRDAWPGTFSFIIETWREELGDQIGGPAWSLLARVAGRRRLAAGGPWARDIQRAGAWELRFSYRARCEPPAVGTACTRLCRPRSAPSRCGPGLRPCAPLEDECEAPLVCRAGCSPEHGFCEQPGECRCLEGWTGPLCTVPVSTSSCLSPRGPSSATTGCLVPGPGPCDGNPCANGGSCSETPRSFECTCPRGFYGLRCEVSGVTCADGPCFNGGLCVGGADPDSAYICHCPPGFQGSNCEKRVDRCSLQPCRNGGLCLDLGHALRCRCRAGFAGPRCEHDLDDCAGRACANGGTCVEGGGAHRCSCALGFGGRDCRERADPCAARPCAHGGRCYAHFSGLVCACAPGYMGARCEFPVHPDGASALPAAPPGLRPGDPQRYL

[8] = biological target: T3, FOLR1 on cells (OVCAR3, OV-90); assay: flow cytometry on FOLR1 expressing OV-90 cells, Geomeans RL1-H against Conc (nM) [bottom panel]
[9] = biological target: T6, mouse DLL3 (recombinant antigen) (mouse, UniProt O88516 25-477, limits assumed); assay: BLI (Octet), VHH-Fc captured on AHC biosensor, mDLL3 as analyte
T6 construct: also called mDLL3
T6 sequence (looked up): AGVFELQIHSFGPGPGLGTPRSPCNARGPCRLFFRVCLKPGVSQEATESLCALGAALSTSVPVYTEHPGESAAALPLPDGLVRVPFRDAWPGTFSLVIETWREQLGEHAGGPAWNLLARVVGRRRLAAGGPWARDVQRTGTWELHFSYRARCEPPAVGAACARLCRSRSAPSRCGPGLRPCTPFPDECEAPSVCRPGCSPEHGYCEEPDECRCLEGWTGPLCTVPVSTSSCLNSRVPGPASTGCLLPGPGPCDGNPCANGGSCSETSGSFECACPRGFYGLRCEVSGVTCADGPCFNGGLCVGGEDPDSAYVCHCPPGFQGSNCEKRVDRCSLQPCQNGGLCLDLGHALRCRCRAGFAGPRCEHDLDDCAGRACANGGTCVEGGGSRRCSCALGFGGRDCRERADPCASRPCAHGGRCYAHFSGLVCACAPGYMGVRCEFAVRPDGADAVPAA

[10] = biological target: T7, human DLL3 (recombinant antigen) (human, UniProt Q9NYJ7 27-492, limits assumed); assay: BLI (Octet), VHH-Fc captured on AHC biosensor, hDLL3 as analyte
T7 construct: also called hDLL3
T7 sequence (looked up): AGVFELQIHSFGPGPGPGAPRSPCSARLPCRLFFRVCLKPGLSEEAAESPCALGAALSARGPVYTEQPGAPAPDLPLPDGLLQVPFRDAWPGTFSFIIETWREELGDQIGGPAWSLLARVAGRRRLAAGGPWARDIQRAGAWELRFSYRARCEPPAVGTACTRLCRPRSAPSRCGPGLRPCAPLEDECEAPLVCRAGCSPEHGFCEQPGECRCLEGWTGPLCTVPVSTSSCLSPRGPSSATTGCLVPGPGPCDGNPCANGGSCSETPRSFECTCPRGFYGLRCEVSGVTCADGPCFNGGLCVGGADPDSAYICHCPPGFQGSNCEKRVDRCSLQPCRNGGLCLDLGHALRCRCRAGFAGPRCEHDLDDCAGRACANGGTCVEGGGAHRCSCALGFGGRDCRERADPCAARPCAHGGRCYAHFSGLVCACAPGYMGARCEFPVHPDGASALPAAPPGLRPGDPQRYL

[11] = biological target: T3, FOLR1 on cells (OVCAR3, OV-90); assay: flow cytometry on FOLR1 expressing OV-90 cells, Geomeans RL1-H against Conc (nM) [top panel]
[12] = biological target: T8, mouse FOLR1 (recombinant antigen) (mouse, UniProt P35846 25-232, limits assumed); assay: ELISA on mFOLR1
T8 construct: also called mFOLR1
T8 sequence (P35846 25-232 limits assumed): as the sequence (P35846 25-232 limits assumed) above

[13] = biological target: T9, human FOLR1 (recombinant antigen) (human, UniProt P15328 25-234, limits assumed); assay: ELISA on hFOLR1
T9 construct: also called hFOLR1
T9 sequence (P15328 25-234 limits assumed): as the sequence (P15328 25-234) above

[14] = biological target: FcγRIIIa (F176) (biotinylated, Acro Biosystems) (UniProt P08637 17-208, biotinylated); assay: BLI, biotinylated FcγR on SA sensor
Sequence of FcγRIIIa (F176) (biotinylated, Acro Biosystems) (P08637 17-208 limits assumed): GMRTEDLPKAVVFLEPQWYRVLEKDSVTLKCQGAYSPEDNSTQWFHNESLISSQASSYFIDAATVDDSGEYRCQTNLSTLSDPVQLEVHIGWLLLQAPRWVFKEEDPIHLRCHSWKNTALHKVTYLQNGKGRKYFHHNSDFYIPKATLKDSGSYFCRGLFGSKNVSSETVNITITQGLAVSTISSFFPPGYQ

[15] = biological target: T10, FcγRIIa (H167) (biotinylated, Acro Biosystems) (UniProt P12318 36-218, biotinylated); assay: BLI, biotinylated FcγR on SA sensor
T10 sequence (looked up): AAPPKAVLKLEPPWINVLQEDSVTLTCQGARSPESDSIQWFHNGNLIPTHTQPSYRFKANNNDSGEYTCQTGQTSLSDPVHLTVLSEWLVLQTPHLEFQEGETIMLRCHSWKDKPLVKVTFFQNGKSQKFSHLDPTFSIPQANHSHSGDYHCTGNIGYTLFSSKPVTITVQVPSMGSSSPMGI

[16] = biological target: FcγRIIIa (V176) (biotinylated, Acro Biosystems) (UniProt P08637 17-208, biotinylated); assay: BLI, biotinylated FcγR on SA sensor
Sequence of FcγRIIIa (V176) (biotinylated, Acro Biosystems) (P08637 17-208 F176V limits assumed): as the sequence (P08637 17-208 limits assumed) above, with F160V counted along it

[17] = biological target: biotinylated hFcRn (Sino Biological, Cat #: CT071-H27H-B) (human, UniProt P55899 24-297; P61769 21-119, biotinylated); assay: BLI (Octet), biotinylated hFcRn on SA sensor, pH 6.0, 2:1 heterogeneous ligand model
[18] = biological target: T11, FcγRIIa (R167) (biotinylated, Acro Biosystems) (UniProt P12318 36-218, biotinylated); assay: BLI (Octet), biotinylated FcγR on SA sensor, steady state analysis
T11 sequence (looked up): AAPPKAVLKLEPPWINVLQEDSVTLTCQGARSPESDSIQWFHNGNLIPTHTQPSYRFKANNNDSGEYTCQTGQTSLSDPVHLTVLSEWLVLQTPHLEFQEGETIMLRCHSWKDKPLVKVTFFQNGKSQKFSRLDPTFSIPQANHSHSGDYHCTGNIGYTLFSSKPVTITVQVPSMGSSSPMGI

B1: Rovalpituzumab (Creative Biolabs #TAB-216CL) (antibody, V domains shown)
VH: QVQLVQSGAEVKKPGASVKVSCKASGYTFTNYGMNWVRQAPGQGLEWMGWINTYTGEPTYADDFKGRVTMTTDTSTSTAYMELRSLRSDDTAVYYCARIGDSSPSDYWGQGTLVTVSS
VL: EIVMTQSPATLSVSPGERATLSCKASQSVSNDVVWYQQKPGQAPRLLIYYASNRYTGIPARFSGSGSGTEFTLTISSLQSEDFAVYYCQQDYTSPWTFGQGTKLEIK
B1 was tested, and the EC50 [1] was 0.06 nM, the “EC50 (read off the curve)” value [2] was roughly 0.09 nM and the “EC50 (read off the curve)” value [3] was roughly 0.1 nM. It also gave an EC50 [4] of 0.11 nM.

B2: Anti-FOLR1x2; Anti-DLL3x2; (GGS)3 tetramer (bispecific antibody)
chain (part 1 of 2): QVQLVESGGGLVQPGGSLRLSCAASGFTVSNSVMAWYRQTPGNEREFVAIINSIGITNYADSVKGRFTISRDNSKNTLYLQMNSLRAEDTAVYVCNRNFDRIYWGQGTLVTVSSGGSGGSGGSEVQLVESGGGEVQPGGSLRLSCAASGSIFSINAMGWYRQAPGKQRELVAGFTGDTNTIYAESVKGRFTISRDNAKNTVYLQMSSLRAEDTAVYYCAADVQLFSRDYEFYWGQGTLVTVKP
chain (part 2 of 2): not shown
notes: As m61 with the (GGS)3 linker; also called bispecific tetramer GGSx3; not shown: hinge
In the case of B2, the “EC50 (read off the curve)” value [5] is reported as roughly 3 nM, the binding result [6] is reported as “binds” and the binding result [7] is reported as “binds”.

B3: bispecific anti-h/mFOLR1/h/mDLL3 (GGS)3 tetramer, p-SCN-Bn-DOTA conjugate (bispecific antibody)
chain (part 1 of 2): QVQLVESGGGLVQPGGSLRLSCAASGFTVSNSVMAWYRQTPGNEREFVAIINSIGITNYADSVKGRFTISRDNSKNTLYLQMNSLRAEDTAVYVCNRNFDRIYWGQGTLVTVSSGGSGGSGGSEVQLVESGGGEVQPGGSLRLSCAASGSIFSINAMGWYRQAPGKQRELVAGFTGDTNTIYAESVKGRFTISRDNAKNTVYLQMSSLRAEDTAVYYCAADVQLFSRDYEFYWGQGTLVTVKP
chain (part 2 of 2): not shown
modifications: conjugated with p-SCN-Bn-DOTA
notes: Chelator conjugate of m63; not shown: hinge
For B3, the “EC50 (read off the curve)” value [8] was roughly 3 nM.

B4: DLL3 VHH (VHH-Fc control) (Fc fusion, not shown: a dimerising Fc or GST)
chain: EVQLVESGGGEVQPGGSLRLSCAASGSIFSINAMGWYRQAPGKQRELVAGFTGDTNTIYAESVKGRFTISRDNAKNTVYLQMSSLRAEDTAVYYCAADVQLFSRDYEFYWGQGTLVTVKP
With B4 the koff [9] was 0.000267 s⁻¹, the kon [9] was 215000 M⁻¹ s⁻¹ and the Kd [10] was 2.29 nM. For the same binder, the koff [10] was 0.000379 s⁻¹, the kon [10] was 166000 M⁻¹ s⁻¹ and the binding result [11] was “no binding (tested: 200 nM)”. B4: no binding [12]; no binding [13].

B5: H133 (Fc fusion)
chain (part 1 of 2): QVQLQESGGGSVQAGGSLKLTCAASGYIFNSCGMGWYRQSPGRERELVSRISGDGDTWHKESVKGRFTISQDNVKKTLYLQMNSLKPEDTAVYFCAVCYNLETYWGQGTQVTVSS
chain (part 2 of 2): APEAEGAPSVFLFPPKPKDTLMISRTPEVTCVVVDVSHEDPEVKFNWYVDGVEVHNAKTKPREEQYNSTYRVVSVLTVLHQDWLNGKEYKCKVSNKALPSSIEKTISKAKGQPREPQVYTLPPSREEMTKNQVSLTCLVKGFYPSDIAVEWESNGQPENNYKTTPPVLDSDGSFFLYSKLTVDKSRWQQGNVFSCSVMHEALHNHYTQKSLSLSPG
notes: not shown: hinge; copies: 2 + 2
B5: no binding [14]; no binding [15]; no binding [16]. It also gave a Kd [17] of 2.1 nM and a Kd [18] of 2300 nM.
